Test results: the supplement of paper PMC12042874
± gives the uncertainty stated by the source.

Test: amyloid nucleation score (Sup35N fusion, yeast selection) (log enrichment); library NNK1; higher = more nucleation; inactive = no reads after selection
Outline: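 Libraries of peptides of 20 random codons fused to Sup35N were expressed in psi-negative yeast and induced 24 hours with 100 μM copper sulfate. Selection was 7 days at 30°C on medium lacking adenine and uracil, and plasmid inserts were Illumina-sequenced before and after selection. Nucleation score is the DiMSum log enrichment of output over input reads, centred on the mode score of non-aggregating sequences, and sequences with under 100 input reads were left out.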

Row | Substance | amyloid nucleation score
1 | LRFVVFASTIGRGIGST | -0.892 ± 0.48
2 | LRHTCVRPSWSNAIFMPNSA | 0.834 ± 0.57
3 | LRIFSA | 1.22 ± 0.8
4 | LRIRYT | 2.42 ± 0.17
5 | LRKCSLAVPYGLRLVYLRKE | 0.14 ± 0.54
6 | LRKSHYFTY | -0.429 ± 0.58
7 | LRKTFF | 0.38 ± 0.33
8 | LRLTALGSSRPIKFEGNVGY | -0.532 ± 0.68
9 | LRMKANYVTSAFNRCVLLLG | 0.425 ± 0.41
10 | LRNRMGNDIISILITIPKIV | 0.217 ± 0.34
11 | LRRLNRHFIVTFFNGTRCDF | 2.1 ± 0.26
12 | LRSGKAQYTEVVLLRIRPGF | -1.4 ± 2.7
13 | LRTRSLTALFQLCYHTCNVG | 0.431 ± 0.42
14 | LRVQWRQSTFN | 0.865 ± 0.48
15 | LRYCNMHHRHDSYGLSSYSY | 2.21 ± 0.11
16 | LRYSYTRDHSGTPYPSTGNS | -0.74 ± 1.1
17 | LSATGGMGIRF | -0.318 ± 1.2
18 | LSCPRLVTLCCNLWDKYSLW | 0.955 ± 0.28
19 | LSCPRNYWRSSLLVFMDGSQ | 0.319 ± 0.63
20 | LSCSFDESW | 0.024 ± 0.24
21 | LSERYVSTGVARDSGNAKVG | 3.88 ± 0.11
22 | LSEYVKEAVVDPRLTFARIA | -0.764 ± 0.89
23 | LSIRYWCYNLRLVQAHCFRV | -0.657 ± 0.56
24 | LSLNIYCMRS | 7.155 ± 0.045
25 | LSLTRAMGIYFRWVLSRSFG | -0.837 ± 2.4

Row | Substance | amyloid nucleation score
26 | LSLYESLSNPLVRSYRLFCR | 0.517 ± 0.45
27 | LSNKLEYPMSPLISAVLFSA | inactive
28 | LSNLDMVM | inactive
29 | LSRFEQGHELLHKSVIYCEV | -0.304 ± 0.32
30 | LSSFMAAGVSLMCNTFLIWH | 0.729 ± 0.51
31 | LSSSGFWYWFT | -0.251 ± 0.32
32 | LSTGLKFACATRVSYALVRV | 0.117 ± 0.5
33 | LSVNICKKY | 3.5 ± 0.1
34 | LSVQTWFGLSACYTGQAKYS | 0.171 ± 1.2
35 | LSWES | -0.866 ± 0.73
36 | LSYDSYSYIGLGGSLEIFWA | 0.182 ± 0.71
37 | LSYEDSSFNFLNSFYIKSWW | -0.161 ± 0.5
38 | LSYMGGIPGVLHVMPDAFTV | -0.077 ± 0.7
39 | LSYRSSRFGVS | 0.3 ± 0.64
40 | LTCMLVRRFGNFIDDSYARA | -1.2 ± 0.5
41 | LTCRYLACCSLRSGRQMLVG | -0.694 ± 1.2
42 | LTEYFSSVVEYDGYPVLSE | -0.91 ± 1
43 | LTHVIGIPRQPCEPLVHLYG | -0.745 ± 2.4
44 | LTITGSFIHPI | -0.739 ± 0.79
45 | LTLFQYAFDVHETAVLKLEW | -0.166 ± 0.4
46 | LTNGAVGVTFAQNVWPFYAN | 3.67 ± 0.074
47 | LTTPSFYLAGCSSS | -0.059 ± 0.36
48 | LTVKCCDVSWVRFWYCIAGG | 6.618 ± 0.056
49 | LVASSFDYMMLSSVGRGYGL | -0.245 ± 0.3
50 | LVDSPCQRSYTRRPHTHWR | 0.15 ± 0.34

Row | Substance | amyloid nucleation score
51 | LVFPWIISFCQRMWMLYQRY | 0.499 ± 0.35
52 | LVFVFWLKVEPPMLSTCMSK | -1.16 ± 2.7
53 | LVFVVMYGSRPSLKWWGITC | 0.473 ± 0.79
54 | LVILVTIVDFMEDLSW | 0.74 ± 0.54
55 | LVKLIWRISAWHSWFVSR | 1.48 ± 0.8
56 | LVLANTDSLTLWFLVTYLTC | -0.42 ± 0.62
57 | LVLIAA | inactive
58 | LVLLQVVIYGHLQCSFYQMH | 1.8 ± 0.23
59 | LVMCVFLSASVYVFPTHLSS | -1.18 ± 1.4
60 | LVNVGGQEIKVMR | 0.888 ± 0.2
61 | LVNYLICWT | -0.078 ± 0.82
62 | LVPSWRVFVQHLGLFRAL | 0.333 ± 0.7
63 | LVQVIVHFGIYIISAKGQGT | 3.1 ± 0.15
64 | LVSCDIVWWTAMFGLLARMF | 0.591 ± 0.37
65 | LVSMRMAFCPWLVRKGIPL | 0.206 ± 1.6
66 | LVTNAYTYSSTGIYDYVRPG | 0.093 ± 0.81
67 | LVVDRGVNGCAFSWDTNDLS | -0.52 ± 0.71
68 | LVVHTVRVQDR | -0.043 ± 0.41
69 | LVYLA | -0.569 ± 0.87
70 | LWATNFCNTGFVYSLCIFSR | 3.89 ± 0.12
71 | LWERGKCHEACVVPAKKEGT | 0.039 ± 0.51
72 | LWFGSHLTNCVKYDLKGESV | 1.41 ± 0.47
73 | LWGRGCMCWVVVARCFWPLR | -0.153 ± 1.4
74 | LWHAYAKSGYPFGSMVGVHA | 0.703 ± 0.4
75 | LWIQMLAWCSRCM | 1.65 ± 0.32

Row | Substance | amyloid nucleation score
76 | LWLRGLVSFRQSHGRTGKSS | -0.126 ± 0.33
77 | LWMHAGSGRIKLETGCGAKC | inactive
78 | LWRLANWRM | -0.46 ± 0.27
79 | LWSFIGTGLITNMCISREFK | 0.743 ± 0.16
80 | LYAIYTAFNRVSSYSNMPVM | -0.599 ± 0.92
81 | LYANNMLSGILCNGFSTITS | -0.339 ± 0.63
82 | LYASASADHSRQRREGTPVL | -0.54 ± 0.59
83 | LYAYDWLHEGNSSHKSDLVM | -0.791 ± 0.77
84 | LYCTLLKDSVSSLAVTYMSY | -0.071 ± 0.28
85 | LYCWVFSLSSMESNWLGQHT | -0.012 ± 0.29
86 | LYDRCYGIRSSAIEGEEYKR | 0.806 ± 0.97
87 | LYESYDMVEKQDRTWSKGSS | 0.281 ± 0.65
88 | LYFEIYRVIIFKDAFVASMR | -0.63 ± 0.64
89 | LYHRSSLGMVSVVGDSMSDT | 0.596 ± 1.2
90 | LYKLTEFQAYKVIRPSACCV | -1.13 ± 2.4
91 | LYLMGVRVMGNSICTLVRRL | inactive
92 | LYMYSLSFLMGGNANHRLGM | 1.98 ± 0.16
93 | LYRCYESG | -0.378 ± 0.27
94 | LYSKLSALEFMQLAIQSHLD | 1.96 ± 0.15
95 | LYSSLSYTKFMCAG | -0.51 ± 0.81
96 | LYSVISPLSEDTYDCLSVPY | 0.297 ± 0.79
97 | LYSVRLRSVSK | -0.376 ± 0.25
98 | LYVEYKRAMCVMGVSLWVN | 0.224 ± 0.19
99 | LYVLYAIRFLSFCSFWRYLI | -1.15 ± 0.51
100 | LYVMRKSDMMLDFRNAANVG | -0.142 ± 0.23

Row | Substance | amyloid nucleation score
101 | LYYCSFRYMIKTRNLNVTFL | 6.4 ± 0.084
102 | LYYFCLAINFSLGEGTAFVQ | -0.133 ± 0.84
103 | MADEWLCQKCGSRVT | -0.207 ± 0.59
104 | MAFLYFMFILFHARCLIRLP | -0.177 ± 0.65
105 | MAGPYLVERRSMWASNARAE | -1.07 ± 1.4
106 | MARPLRIHYNYSGSNDLRVR | -0.444 ± 0.4
107 | MAVLGALNRSGNMGVGLFYN | -0.647 ± 0.4
108 | MCDDHWFPAIYKRLVSSNKQ | 1.87 ± 0.57
109 | MCDIFAMLLIYQFDGKGTV | 0.151 ± 0.17
110 | MCGNDWVYGDWIRSEIHGSS | -0.403 ± 0.59
111 | MCINIKKNMFR | 4.74 ± 0.048
112 | MCKYVMRVLHIVAG | 0.699 ± 0.42
113 | MCREYVFDNSPVT | -0.89 ± 1.2
114 | MCSKWDFQVLSHTDSWVWV | -0.67 ± 0.5
115 | MDAFPEFLGVVFHSDDFGVP | -0.209 ± 0.39
116 | MDKCIVSGVVESIFTGGAVI | -0.361 ± 0.75
117 | MDTFSIMTYLAWQSNELLLI | 1.22 ± 0.23
118 | MDVGIFMIMTVTRWKGCSVI | 0.565 ± 0.48
119 | MEMLGGNRL | 1.23 ± 0.36
120 | MFDGEIFSYFNCTIV | 5.67 ± 0.051
121 | MFEFKKPD | -0.015 ± 0.73
122 | MFISIGLPPQRRQDSHGWGG | 0.532 ± 0.37
123 | MFMHELHMVDP | -0.873 ± 0.77
124 | MFVFFSTMSIR | inactive
125 | MFVRPRESAEHMLGFRVYSG | 0.452 ± 0.37

Row | Substance | amyloid nucleation score
126 | MGDFND | -1.08 ± 1.4
127 | MGGSCTSEQYCDWANYGDVL | 0.125 ± 1.4
128 | MGGTLRNRRGTKVRSELGGD | -0.817 ± 1.7
129 | MGSVVHRKVEVHGRFKCGAT | 0.477 ± 0.93
130 | MHGISQPWHKLTMTGIRLAW | -0.463 ± 0.51
131 | MHRGALSTMQHLHEISLLSC | 0.886 ± 0.52
132 | MIAHLAPINRDAEYFINAIC | -0.236 ± 0.27
133 | MIKSKM | -0.154 ± 0.61
134 | MIKSPTVKGFRMLCSVRGRD | -0.284 ± 0.44
135 | MIVRSVILNDCWAGGACLHF | 6.936 ± 0.047
136 | MKCYVFLKNWMWLVDYLDSI | -0.991 ± 2.4
137 | MLACDVISPFCYVNWKRLCR | 2.43 ± 0.15
138 | MLFCVTRSVFSENCSLSLCT | inactive
139 | MLFRYRSPHTVWLIRLCMKQ | 0.839 ± 0.56
140 | MLGCFISFTIKLLG | 1.39 ± 0.11
141 | MLGFYKSWCFNFSNMNVH | 0.979 ± 0.57
142 | MLRAGY | -0.292 ± 0.63
143 | MLTQPAEAKEARVSFCSLYM | 1.01 ± 0.53
144 | MLTWCPTSEKVVLLFRSQRG | -0.383 ± 1.7
145 | MLVAFAYFFGSHVRHWGFVW | 0.224 ± 0.33
146 | MLWRYKRCNFARMFNLRVYV | -0.822 ± 0.65
147 | MLYFRVGVSFGLFVDNFVGF | 2.12 ± 0.13
148 | MLYKIRDQIYIRHGSFEG | 0.224 ± 0.28
149 | MLYPNNKSVVLVVMELRPNA | 0.648 ± 0.52
150 | MMFLTNCCFMVLNCYTCVRY | 3.53 ± 0.066

Row | Substance | amyloid nucleation score
151 | MMSEYSYESFHMLII | -2.05 ± 1.4
152 | MMSFVEKPQGESSSNEWGVN | -0.777 ± 2.4
153 | MMVRGMW | 1.34 ± 0.35
154 | MNCVLIVVPRMTLGNYRSSW | 5.21 ± 0.053
155 | MNVTCDGRMGIQVDPVRYNR | -0.122 ± 1.4
156 | MQFLVVLCQCQFLNRVRGCA | 1.5 ± 0.35
157 | MQKYPIRGRR | 1.64 ± 0.23
158 | MQRLLYACVHYRESAQVSTL | 1.93 ± 0.37
159 | MQTVNFVFTRLIFISDFTIQ | 0.688 ± 0.26
160 | MRFGLRYKALALRVFVEMTA | inactive
161 | MRFSPVPCLNF | 0.353 ± 0.43
162 | MRHRCGHRSVPG | -0.118 ± 0.68
163 | MRLCPEPASKSDMPFSRDLR | 0.268 ± 1.4
164 | MRLMVGYRRCFASLVKNVCT | -0.963 ± 1.8
165 | MRLNYGNITLSFGSPMMQTI | 0.682 ± 0.15
166 | MRMRKNEHYE | 0.476 ± 0.46
167 | MRQQGWYTESTFVMCQFTGG | 2.04 ± 0.088
168 | MRRHLGHLTLESGNHGCLQA | inactive
169 | MRVHFLE | 0.136 ± 0.41
